Key:
[1] = target: E. coli Pol III (Escherichia coli) (UniProt P10443); assay: cell-based or functional assay
[2] = target: human DNA polymerase delta (human) (UniProt P28340); assay: cell-based or functional assay
[3] = target: T1, Aquifex aeolicus α subunit of DNA polymerase III (Aquifex aeolicus, UniProt O67125 1-1161); assay: complex constitution from pure subunits, column chromatography
T1 construct: Recombinant, expressed in E. coli from pETAadnaE (pET24); also called A.ae. α; Aquifex α
T1 sequence: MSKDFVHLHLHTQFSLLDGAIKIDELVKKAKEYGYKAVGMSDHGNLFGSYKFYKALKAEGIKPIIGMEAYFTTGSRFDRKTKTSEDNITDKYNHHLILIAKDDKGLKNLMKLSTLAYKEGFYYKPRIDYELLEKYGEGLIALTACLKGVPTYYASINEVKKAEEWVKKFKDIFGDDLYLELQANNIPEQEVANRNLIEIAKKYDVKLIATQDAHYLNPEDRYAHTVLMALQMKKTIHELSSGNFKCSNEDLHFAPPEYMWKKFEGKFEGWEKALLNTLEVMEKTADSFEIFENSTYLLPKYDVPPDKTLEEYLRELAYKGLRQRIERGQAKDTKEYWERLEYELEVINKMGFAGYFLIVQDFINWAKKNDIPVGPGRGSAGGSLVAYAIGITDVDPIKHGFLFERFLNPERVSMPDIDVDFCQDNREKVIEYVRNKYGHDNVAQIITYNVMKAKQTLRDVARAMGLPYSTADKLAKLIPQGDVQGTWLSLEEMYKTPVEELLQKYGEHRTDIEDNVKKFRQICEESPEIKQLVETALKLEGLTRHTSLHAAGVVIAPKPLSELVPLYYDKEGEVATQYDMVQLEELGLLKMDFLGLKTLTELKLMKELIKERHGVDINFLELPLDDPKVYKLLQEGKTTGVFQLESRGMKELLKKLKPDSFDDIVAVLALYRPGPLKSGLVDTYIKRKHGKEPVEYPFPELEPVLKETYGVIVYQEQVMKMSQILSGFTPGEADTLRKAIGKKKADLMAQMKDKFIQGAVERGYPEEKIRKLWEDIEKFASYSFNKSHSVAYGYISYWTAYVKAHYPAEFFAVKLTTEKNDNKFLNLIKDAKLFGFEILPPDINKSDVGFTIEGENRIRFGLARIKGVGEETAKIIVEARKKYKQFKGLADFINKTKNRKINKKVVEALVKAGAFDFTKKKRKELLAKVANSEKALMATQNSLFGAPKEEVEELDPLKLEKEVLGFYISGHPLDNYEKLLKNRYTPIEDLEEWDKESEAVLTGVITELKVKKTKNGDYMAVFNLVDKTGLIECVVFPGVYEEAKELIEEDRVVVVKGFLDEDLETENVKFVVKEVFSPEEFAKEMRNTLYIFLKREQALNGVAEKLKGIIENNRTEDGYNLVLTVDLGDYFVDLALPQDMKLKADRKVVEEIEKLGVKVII

[4] = target: Thermus thermophilus DNA polymerase III purified from T.th. cell extracts; assay: cell-based or functional assay

Sequence of human DNA polymerase delta (human) (P28340 whole entry, stated change not applied): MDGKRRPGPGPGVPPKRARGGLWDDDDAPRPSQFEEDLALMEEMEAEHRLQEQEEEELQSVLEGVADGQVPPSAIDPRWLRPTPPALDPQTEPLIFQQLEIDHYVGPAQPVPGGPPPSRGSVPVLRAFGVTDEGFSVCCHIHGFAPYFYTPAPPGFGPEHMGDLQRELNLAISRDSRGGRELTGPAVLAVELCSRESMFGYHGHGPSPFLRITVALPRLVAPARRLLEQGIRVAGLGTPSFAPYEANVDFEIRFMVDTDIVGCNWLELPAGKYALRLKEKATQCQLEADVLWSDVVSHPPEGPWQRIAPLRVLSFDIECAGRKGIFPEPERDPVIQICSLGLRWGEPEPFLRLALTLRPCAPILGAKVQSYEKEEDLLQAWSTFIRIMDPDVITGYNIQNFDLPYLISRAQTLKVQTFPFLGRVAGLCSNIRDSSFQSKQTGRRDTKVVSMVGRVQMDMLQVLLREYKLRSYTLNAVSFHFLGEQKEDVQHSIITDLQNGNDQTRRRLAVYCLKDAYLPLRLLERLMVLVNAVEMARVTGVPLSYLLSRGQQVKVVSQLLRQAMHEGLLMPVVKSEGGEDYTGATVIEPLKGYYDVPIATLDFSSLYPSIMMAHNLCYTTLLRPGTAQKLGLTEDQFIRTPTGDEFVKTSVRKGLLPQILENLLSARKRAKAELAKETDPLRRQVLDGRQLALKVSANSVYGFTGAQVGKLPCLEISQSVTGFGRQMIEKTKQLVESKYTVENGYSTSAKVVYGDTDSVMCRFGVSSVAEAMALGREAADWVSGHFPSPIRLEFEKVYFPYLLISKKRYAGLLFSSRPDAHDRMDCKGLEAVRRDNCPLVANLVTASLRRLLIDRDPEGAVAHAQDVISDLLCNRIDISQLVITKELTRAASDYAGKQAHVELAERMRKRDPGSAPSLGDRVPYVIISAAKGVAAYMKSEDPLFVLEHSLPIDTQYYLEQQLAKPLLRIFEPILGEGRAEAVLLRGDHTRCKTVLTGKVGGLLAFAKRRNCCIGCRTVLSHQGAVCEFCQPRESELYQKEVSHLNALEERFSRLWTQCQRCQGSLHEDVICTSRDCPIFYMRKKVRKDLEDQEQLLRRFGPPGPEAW
Sequence of E. coli Pol III (Escherichia coli) (P10443 whole entry): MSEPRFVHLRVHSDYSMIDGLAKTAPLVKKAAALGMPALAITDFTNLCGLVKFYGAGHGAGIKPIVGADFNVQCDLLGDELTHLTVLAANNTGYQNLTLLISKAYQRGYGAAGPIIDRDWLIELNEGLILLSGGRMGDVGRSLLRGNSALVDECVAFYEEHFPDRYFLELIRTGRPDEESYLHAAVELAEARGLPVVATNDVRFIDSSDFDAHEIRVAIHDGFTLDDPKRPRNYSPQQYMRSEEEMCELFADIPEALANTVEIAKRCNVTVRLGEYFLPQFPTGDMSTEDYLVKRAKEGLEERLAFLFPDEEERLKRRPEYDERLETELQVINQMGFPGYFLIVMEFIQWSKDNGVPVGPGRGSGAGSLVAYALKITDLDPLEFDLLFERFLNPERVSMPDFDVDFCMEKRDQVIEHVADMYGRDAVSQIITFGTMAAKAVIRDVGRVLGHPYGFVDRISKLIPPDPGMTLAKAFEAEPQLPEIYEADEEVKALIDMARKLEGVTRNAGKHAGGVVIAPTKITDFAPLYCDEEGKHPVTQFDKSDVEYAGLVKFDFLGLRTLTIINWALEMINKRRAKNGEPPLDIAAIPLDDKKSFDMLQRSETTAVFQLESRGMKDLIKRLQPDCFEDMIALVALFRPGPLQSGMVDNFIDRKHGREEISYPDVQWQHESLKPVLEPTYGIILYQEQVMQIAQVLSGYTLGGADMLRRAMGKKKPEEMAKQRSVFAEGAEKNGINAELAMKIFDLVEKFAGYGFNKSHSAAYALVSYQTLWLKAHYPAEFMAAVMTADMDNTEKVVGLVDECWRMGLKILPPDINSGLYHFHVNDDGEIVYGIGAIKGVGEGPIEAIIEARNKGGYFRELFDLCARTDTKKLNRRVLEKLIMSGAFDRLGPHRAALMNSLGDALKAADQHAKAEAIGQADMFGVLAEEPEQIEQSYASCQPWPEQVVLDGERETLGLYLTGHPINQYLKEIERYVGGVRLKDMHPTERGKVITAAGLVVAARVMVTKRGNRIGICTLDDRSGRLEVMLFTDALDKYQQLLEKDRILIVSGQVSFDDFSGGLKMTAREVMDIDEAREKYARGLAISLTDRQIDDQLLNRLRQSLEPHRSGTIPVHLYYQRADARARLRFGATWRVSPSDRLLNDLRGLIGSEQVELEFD

## E. coli β subunit (from UniProt P0A988 1-366)
[1]
  pmol synthesis on oligodT-primed linear polydA, E. coli Pol III with β (lane 2): 35 pmol
  pmol synthesis on oligodT-primed linear polydA, E. coli Pol III without β (lane 1, baseline): 6 pmol

## human PCNA (from UniProt P12004 1-261)
[2]
  pmol synthesis on oligodT-primed linear polydA, human Polδ with PCNA (lane 4): 24 pmol
  pmol synthesis on oligodT-primed linear polydA, human Polδ without PCNA (lane 3, baseline): 2 pmol

B1: Aquifex aeolicus tau subunit of DNA polymerase III (other)
chain: MNYVPFARKYRPKFFREVIGQEAPVRILKNAIKNDRVAHAYLFAGPRGVGKTTIARILAKALNCKNPSKGEPCGECENCREIDRGVFPDLIEMDAASNRGIDDVRALKEAVNYKPIKGKYKVYIIDEAHMLTKEAFNALLKTLEEPPPRTVFVLCTTEYDKILPTILSRCQRIIFSKVRKEKVIEYLKKICEKEGIECEEGALEVLAHASEGCMRDAASLLDQASVYGEGRVTKEVVENFLGILSQESVRSFLKLLLNSEVDEAIKFLRELSEKGYNLTKFWEMLEEEVRNAILVKSLKNPESVVQNWQDYEDFKDYPLEALLYVENLINRGKVEARTREPLRAFELAVIKSLIVKDIIPVSQLGSVVKETKKEEKKVEVKEEPKVKEEKPKEQEEDRFQKVLNAVDGKILKRILEGAKREERDGKIVLKIEASYLRTMKKEFDSLKETFPFLEFEPVEDKKKPQKSSGTRLF
notes: Recombinant, expressed in E. coli from pETAadnaX (pET24); also called A.ae. tau
[3]
  binding result: binds

B2: Thermus thermophilus β subunit, recombinant (protein)
chain: MNITVPKKLLSDQLSLLERIVPSRSANPLYTYLGLYAEEGALILFGTNGEVDLEVRLPAEAQSLPRVLVPAQPFFQLVRSLPGDLVALGLASEPGQGGQLELSSGRFRTRLSLAPAEGYPELLVPEGEDKGAFPLRTRMPSGELVKALTHVRYAASNEEYRAIFRGVQLEFSPQGFRAVASDGYRLALYDLPLPQGFQAKAVVPARSVDEMVRVLKGADGAEAVLALGEGVLALALEGGSGVRMALRLMEGEFPDYQRVIPQEFALKVQVEGEALREAVRRVSVLSDRQNHRVDLLLEEGRILLSAEGDYGKGQEEVPAQVEGPDMAVAYNARYLLEALAPVGDRAHLGISGPTSPSLIWGDGEGYRAVVVPLRVZ
[4]
  pmol synthesis on oligodT-primed linear polydA, T.th. Pol III with T.th. β (lane 6): 1.9 pmol
  pmol synthesis on oligodT-primed linear polydA, T.th. Pol III without T.th. β (lane 5, baseline): 0.6 pmol
